Laboratory results published in article PMC3924328, “Structure of the S100A4/myosin-IIA complex” (BMC Structural Biology, 2013).

Key:
[1] = Circular dichroism: secondary structure and thermal stability; type: physicochemical
Experimental: MIIA^1851-1960 was dialyzed into 20 mM Tris pH 7.5, 150 mM KCl, 0.5 mM CaCl2, 0.02% NaN3 and clarified by ultracentrifugation at 80,000 rpm for 10 minutes at 4°C in TLA 120.2 rotor. MIIA^1851-1960 (40 μM monomer concentration) was transferred to a 1 mm path-length quartz cuvette and scanned in Jasco J-815 Spectrometer equipped with a PFD-425 temperature controller. Spectra from 190 to 260 nm were obtained at 22°C using a scan speed of 100 nm/minute, a 1 nm bandwidth, and a sensitivity of 100 mdeg. Thermal melt curves were obtained by monitoring ellipticity at 222 nm while the sample temperature was increased from 2 – 85°C in 2°C intervals at a rate of 60°C/h, using a 1 nm bandwidth. The data were fit to a sigmoidal dose–response with a variable slope using Graphpad Prism v5.

[2] = Sedimentation equilibrium of MIIA^1851-1960 and S100A4/MIIA^1851-1960 mixtures; type: physicochemical, human; conditions: 22°C, MIIA^1851-1960 alone, 20 mM Tris pH 7.5, 150 mM KCl, 0.5 mM CaCl2, 1 mM TCEP, 0.02% NaN3, predicted 24,795
Experimental: (§1) Sedimentation equilibrium and velocity experiments were conducted at 22°C in a Beckman XL-I analytical ultracentrifuge using a Ti60 rotor and Raleigh interference optics. Wild-type S100A4 and MIIA^1851-1960 were dialyzed into 20 mM Tris pH 7.5, 150 mM KCl, 0.5 mM CaCl2, 1 mM TCEP and 0.02% NaN3 and clarified by ultracentrifugation at 80,000 rpm for 10 minutes at 4°C in TLA 120.2 rotor. Sedimentation equilibrium analysis of MIIA^1851-1960 and S100A4 was conducted in six channel centerpieces by sequentially equilibrating the protein at three concentrations for 24 hr at 12,000, 20,000 and 28,000 rpm and globally analyzing the data using HeteroAnalysis v1.1.44 (James L. Cole and Jeffrey W. Lary). The sedimentation velocity experiments were conducted at 53,000 rpm using double sector centerpieces and analyzed using DCDT + v2.4.0 [57, 58]. The best-fit parameters and their 95% joint confidence intervals are reported. The calculated masses of the wild-type S100A4 and MIIA^1851-1960 monomers are 11,597.3 and 12,397.5 Da, respectively. Values of ν-bar = 0.715 for S100A4/MIIA^851-1960 and 0.735 for S100A4, ρ = 1.0059, μ = 1.00586 cp were calculated using Sednterp v1.06 (Hayes, B., T. Laue & J. Philo, Sedimentation Interpretation Program. 2003, University of New Hampshire) from the amino acid and buffer compositions, respectively.

S100A4 [3] = target: T1, S100A4 (Homo sapiens, UniProt P26447); test: as above; type: physicochemical; conditions: 22°C
T1 construct: heteronuclear single quantum coherence spectrum (HSQC) of full-length Ca^2+-S100A4 at 600 MHz; made in house; host or cells: E. coli, M9 medium with 15N NH4Cl (BL21(DE3)* is named for the unlabelled protein)
T1 sequence (P26447 2-101 limits assumed, one chain of several): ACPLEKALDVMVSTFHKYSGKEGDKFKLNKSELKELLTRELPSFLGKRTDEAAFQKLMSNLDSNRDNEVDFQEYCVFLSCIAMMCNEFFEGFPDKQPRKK
Experimental: as §1

S100A4 [4] = target: T1, S100A4; test: Sedimentation velocity of MIIA^1851-1960, S100A4 and S100A4/MIIA^1851-1960 mixtures; type: physicochemical; conditions: sedimentation velocity, protein alone
Experimental: as §1

[5] = ref [45]; cited from earlier work
Excerpt: An interesting feature of the S100A4/myosin-IIA complex is that myosin-IIA residues contributing to the coiled-coil interface also mediate S100A4 binding.

Row | Molecule | Reversibility of thermal unfolding ([1]; CD, 222 nm, data not shown) | Transition midpoint (Tm) for unfolding ([1]; CD, ellipticity at 222 nm, 40 μM monomer, 20 mM Tris pH 7.5, 150 mM KCl, 0.5 mM CaCl2, 0.02% NaN3, 2 – 85°C at 60°C/h, average of two independent experiments) | Secondary structure by CD ([1]; far-UV, 190 to 260 nm, 22°C, 40 μM MIIA^1851-1960 monomer, pH 7.5) | Experimental MW (weight-average molecular mass) [2] | Oligomeric state (S100A4 [3]) | Peak 1 S20,w (S100A4 [4]; 22°C, 53,000 rpm, 20 mM Tris pH 7.5, 150 mM KCl, 0.5 mM CaCl2, 1 mM TCEP, 0.02% NaN3) | Peak 1 MW (S100A4 [4]; 22°C) | S value (S100A4 [4]; 22°C) | [Peak 1] (green), relative amount of plateau concentrations (S100A4 [4]; 22°C) | Tm [5]
1 | MIIA^1851-1960: C-terminal fragment of the human myosin-IIA heavy chain that corresponds to residues 1851–1960 (protein) VDDERRNAEQYKDQADKASTRLKQLKRQLEEAEEEAQRANASRRKLQRELEDATETADAMNREVSSLKNKLRRGDLPFVVPRRMARKGAGDGSDEEVDGKADGAEAKPAE | reversible | 27 °C | primarily α-helical | 25,651 ± 308 Da | we did not detect any monomer | 1.91 ± 0.01 | 18.5 ± 0.2 kDa | 1.91 S | 2.09 ± 0.02 | –
2 | myosin-IIA rod (residues 1102–1960): myosin-IIA rod, residues 1102–1960 (protein, UniProt P35579 1102-1960, looked up, fragment) ALKKIRELESQISELQEDLESERASRNKAEKQKRDLGEELEALKTELEDTLDSTAAQQELRSKREQEVNILKKTLEEEAKTHEAQIQEMRQKHSQAVEELAEQLEQTKRVKANLEKAKQTLENERGELANEVKVLLQGKGDSEHKRKKVEAQLQELQVKFNEGERVRTELADKVTKLQVELDNVTGLLSQSDSKSSKLTKDFSALESQLQDTQELLQEENRQKLSLSTKLKQVEDEKNSFREQLEEEEEAKHNLEKQIATLHAQVADMKKKMEDSVGCLETAEEVKRKLQKDLEGLSQRHEEKVAAYDKLEKTKTRLQQELDDLLVDLDHQRQSACNLEKKQKKFDQLLAEEKTISAKYAEERDRAEAEAREKETKALSLARALEEAMEQKAELERLNKQFRTEMEDLMSSKDDVGKSVHELEKSKRALEQQVEEMKTQLEELEDELQATEDAKLRLEVNLQAMKAQFERDLQGRDEQSEEKKKQLVRQVREMEAELEDERKQRSMAVAARKKLEMDLKDLEAHIDSANKNRDEAIKQLRKLQAQMKDCMRELDDTRASREEILAQAKENEKKLKSMEAEMIQLQEELAAAERAKRQAQQERDELADEIANSSGKGALALEEKRRLEARIAQLEEELEEEQGNTELINDRLKKANLQIDQINTDLNLERSHAQKNENARQQLERQNKELKVKLQEMEGTVKSKYKASITALEAKIAQLEEQLDNETKERQAACKQVRRTEKKLKDVLLQVDDERRNAEQYKDQADKASTRLKQLKRQLEEAEEEAQRANASRRKLQRELEDATETADAMNREVSSLKNKLRRGDLPFVVPRRMARKGAGDGSDEEVDGKADGAEAKPAE | – | – | – | – | – | – | – | – | – | 45 °C
